Experimental data published in PMC8096781.

Target: endogenous PKM2 (HeLa cells) (human (endogenous in HeLa)) (UniProt P14618)
Assay: SEC; gel chromatography (Superdex 200, cold PBS, 4 °C, 0.3 mL/min) of extracts of HeLa cells with vector, FOXM1A or FOXM1D; fractions analysed by western blot

Sequence of endogenous PKM2 (HeLa cells), P14618 1-531 (enzyme; other documents disagree on this pair) (P14618 whole entry): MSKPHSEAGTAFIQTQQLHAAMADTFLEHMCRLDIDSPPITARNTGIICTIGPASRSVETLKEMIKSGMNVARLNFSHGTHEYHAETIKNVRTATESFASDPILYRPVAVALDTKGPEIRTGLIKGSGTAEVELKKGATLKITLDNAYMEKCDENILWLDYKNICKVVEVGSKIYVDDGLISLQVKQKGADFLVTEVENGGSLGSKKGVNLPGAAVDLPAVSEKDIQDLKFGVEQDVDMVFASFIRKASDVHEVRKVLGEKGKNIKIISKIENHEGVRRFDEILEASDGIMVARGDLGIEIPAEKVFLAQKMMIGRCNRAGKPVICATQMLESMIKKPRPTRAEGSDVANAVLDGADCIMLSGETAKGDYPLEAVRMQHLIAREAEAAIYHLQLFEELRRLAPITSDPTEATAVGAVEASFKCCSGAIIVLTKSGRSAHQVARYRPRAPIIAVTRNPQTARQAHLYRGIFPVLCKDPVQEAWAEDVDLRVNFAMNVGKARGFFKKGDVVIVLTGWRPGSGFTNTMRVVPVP

- stoichiometry N: 2
Substance: endogenous PKM2 (HeLa cells), P14618 1-531 (enzyme; other documents disagree on this pair)
